Consider one molecule from publication PMC3493456.

Series [1] has as its target DNA polymerase beta P242R (rs3136797) (Homo sapiens, UniProt P06746 1-335, P242R). Briefly: EMSA; EMSA as described previously (ref 34); buffer, salt, pH and temperature not given in the material.
The target of series [2] is DNA polymerase beta WT (242Pro) (Homo sapiens, UniProt P06746 1-335). Described as above.

B1: 1-bp gapped DNA (dsDNA)
DNA 1: GCCTCGCAGCCGTCCAACCAAC
DNA 2: CAACCTCGATCCAATGCCGTCC
DNA 3: GGACGGCATTGGATCGAGGTTGAGTTGGTTGGACGGCTGCGAGGC
modifications: 5' phosphate on downstream oligo (S8)
As for B1, the Kd in series [1] and in series [2] was 5 nM each time.
